In article PMC3248895:

Target: polymerized nonmuscle actin (F-actin) (UniProt P60709)
Experiment: co-sedimentation

GST-connecdenn 3 789–801 wild type (from UniProt Q8IV53 789-801) (peptide)
Kd: 10.7 µM
